The values below come from patent US20200264197A1 (FRAUNHOFER GESELLSCHAFT ZUR F RDERUNG DER ANGEWANDTEN …, published 2020).

Numbered stars: 1 amine (or outer) side, 2 acyl side, 3 side chain; on linkers, the order of the positions; unused ones are H or OH. Square brackets hold non-standard residues; d marks the D form. Ends that are not written are not given here. βAsp = O=C(O)[C@H](CC(=O)[*:2])N[*:1]; pGlu = O=C1CC[C@@H](C(=O)O)N1

In one test the target is T1, Aβ(1-40).
T1 construct: Synthetic peptide; also called wildtype Aβ(1-40)
T1 sequence (peptide, as listed by the source): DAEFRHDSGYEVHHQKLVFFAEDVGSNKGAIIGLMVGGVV
Briefly: SPR, antibody captured on goat anti-mouse IgG, peptide as analyte. From the text:
(§1) In order to bind analyzing antibodies K11 and K119 to a CMS sensor Chip (GE Healthcare, Product code BR100012), approximately 15,000-20,000 RU of goat anti mouse IgG (Thermo Fisher Scientific, PA1 28555) were immobilized first. To immobilize the anti-mouse IgG, the carboxymethylated dextran surface of the sensor chip was activated by mixing 0.1 M N-hydroxysuccinimide (NHS) with 0.4 M N-ethyl-N′-(dimethylaminopropyl)carbodiimide hydrochloride (EDC) 1:1. EDC/NHS was applied to the sensor chip for 10 minutes with a flow rate of 10 μl/min. Goat anti mouse IgG was diluted to 50 μg/ml in 10 mM Sodium acetate, pH 5.5 and injected for 2×3 minutes with a flow rate of 10 μl/min. After deactivation with 1 M ethanolamine, pH 8.5 for 2×7 minutes with a flow rate of 10 μl/min, 0.1 M glycine, pH 1.7 was applied to the sensor chip with a flow rate of 30 μl/min for 3 minutes, followed by a washing step with HBS-EP buffer (GE Healthcare, Product code BR100188).
(§2) Binding of about 2,000 RU anti isoAsp7-Aβ antibodies occurred with a flow rate of 10 μl/min. To achieve this, antibodies were diluted to 25 μg/ml in HBS-EP buffer and applied to the sensor chip, followed by washing with HBS-EP until the RU signal remains constant.
(§3) Kinetic constants were determined by applying Aβ peptides at different concentrations and calculated from the combined set of data by using BIAevaluation software (Biacore AB) (FIG. 2A and FIG. 3).
Background: SPR reads the build-up and loss of mass on a sensor chip optically.

The target of a further test is T2, pE3-Aβ(3-18).
T2 peptide: [pGlu]FRHDSGYEVHHQKLV
The test is described as above.
Description: as §1, §2, §3

The next test deals with T3, pE3-isoD7-Aβ(3-18).
T3 peptide: [pGlu]FRH[βAsp]SGYEVHHQKLV
The test is described as above.
Description: as §1, §2, §3

The next test has as its target T4, Mouse isoD7-Aβ(1-18) (mouse).
T4 peptide: DAEFGH[βAsp]SGFEVRHQKLV
Described as above.
Description: as §1, §2, §3

The target of the next test is T5, isoD7-Aβ(1-40) (isoAsp at position 7).
T5 construct: Synthetic peptide
T5 sequence (peptide, as listed by the source): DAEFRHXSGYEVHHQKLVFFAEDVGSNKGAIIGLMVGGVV
The test is described as above.
Description: as §1, §2, §3

For the next test, the target named is T6, isod7-Aβ(1-17) (human, D-isoaspartate at position 7).
T6 construct: also called D-isoaspartate isomer containing peptide derivative
T6 peptide: DAEFRHXSGYEVHHQKL
Briefly: SPR, antibody captured on goat anti-mouse IgG, peptide as analyte; SPR. On the procedure: (§4) FIG. 2: Determination of binding constants of immobilized K11 with different Aβ-peptides by SPR analysis. 1,500-2,000 RU of antibody K11 were immobilized on a CMS chip by binding to goat anti mouse IgG. Monomeric Aβ peptides were injected in varying concentrations. KD values were calculated by using single-cycle kinetic analysis of BIAevaluation software. A—isoD7-Aβ(1-18) was applied at 1 nM, 3 nM, 9 nM, 27 nM, 81 nM and 243 nM. B—isod7-Aβ(1-17) was applied at 1 nM, 3 nM, 9 nM, 27 nM, 81 nM and 243 nM. C—Aβ(1-18) was applied at […], 30 nM, 90 nM, 270 nM, 810 nM and 2430 nM.
as §1, with “After deactivation with 1 M ethanolamine, pH 8.5 for 2×7 minutes with a flow rate of 10 μl/min, 0.1 M glycine, pH 1.7 was applied to the sensor chip with a flow rate of 30 μl/min for 3 minutes, followed by a washing step with HBS-EP buffer (GE Healthcare, Product code BR100188).” left out

For test [1], the target named is T7, Aβ(1-18) (human).
T7 construct: also called wildtype peptide Aβ(1-18)
T7 peptide: DAEFRHDSGYEVHHQKLV
The description is as above. The procedure: as §4
as §1, with “After deactivation with 1 M ethanolamine, pH 8.5 for 2×7 minutes with a flow rate of 10 μl/min, 0.1 M glycine, pH 1.7 was applied to the sensor chip with a flow rate of 30 μl/min for 3 minutes, followed by a washing step with HBS-EP buffer (GE Healthcare, Product code BR100188).” left out

For another test, the target named is T8, Aβ(1-30).
T8 construct: also called non-modified Aβ peptide
T8 sequence (peptide, as listed by the source): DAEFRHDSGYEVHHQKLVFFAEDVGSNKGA
The experiment in a line: sandwich ELISA: K11 immobilised at 2 µg/ml as capture, peptide serially diluted, HRP-conjugated 4G8 as detection, absorbance 450/540 nm. The procedure:
FIG. 8: Sandwich ELISA for quantification of isoAsp7-Aβ and total Aβ concentrations in biological samples. Capture antibodies K11 (A) and 3D6 (B) were diluted to 2 μg/ml and immobilized on microtiter plates overnight at 4° C. Blocking occurred for 2 hours at room temperature. isoD7-Aβ(1-30) (SEQ ID NO: 51) and Aβ(1-30) (SEQ ID NO: 52) were serially diluted and added to the wells in duplicate. After an incubation period of 2 hours at 4° C., plates were washed six times with TBS-T. HRP-conjugated anti Aβ antibody clone 4G8 was added in a final concentration of 1 μg/ml and incubated for 1 hour at 4° C. After washing with TBS-T, a color reaction with TMB was performed and stopped by the addition of 1.2 N H₂SO₄. The standard curve was calculated from measured absorption at 450/540 nm by a 4-Parameter-Logistic-Fit: y=(A2+(A1−A2)/(1+(x/x₀)\hat{ }p).
In order to determine the amounts of isoD7-Aβ in biological samples, an indirect Sandwich ELISA was established. Therefore, K11 was diluted in PBS to 2μg/ml and immobilized on polystyrene 96-well microtiter plates overnight at 4° C. Blocking occurred for 2 hours at 4° C. with ELISA Blocker (Thermo Fisher Scientific). […] Absorption at 450/540 nm was determined by a Tecan Sunrise plate reader. The standard curve was calculated from measured absorption by a 4-Parameter-Logistic-Fit: y=(A2+(A1−A2)/(1+(x/x0)\hat{ }p).
(An ELISA detects its analyte on a solid surface through an enzyme-linked reagent.)

Test [2] concerns the target T7, Aβ(1-18). The experiment in a line: SPR, antibody captured on goat anti-mouse IgG, peptide as analyte; SPR; very weak, KD 931,000 nM.
Description: as §1
Binding of about 2,000 RU anti isoAsp7-Aβ antibodies occurred with a flow rate of 10 μl/min. […]
as §3

B1: monoclonal antibody K11 (antibody, mouse IgG1, kappa, V domains shown)
VH: QVQLKESGPGLVAPSQSLSITCTVSGFSLTSYGVHWVRQPPGKGLEWLGALWASGNTDYSSTLMSRLSISKDNSKSQVFLKMNSLQTDDTAMYYCARDRGILTGGYFDVWGAGTTVTVSS
VL: DIVMSQSPTSLAVSAGEKVTMSCKSSQSLLNSRNRKNYLAWYQQKPGQSPKLLIYWASTRDSGVPDRFTGSGSGTDFTLTISSVQAEDLAVYYCKQSYNLRTFGGGTKLEIKR
notes: Mouse monoclonal antibody from a hybridoma; also called clone K11; anti isoAsp7-Aβ antibody K11
As a reminder, the Kd is a measure of binding affinity in units of concentration. A lower Kd goes with tighter binding. In the case of B1, the Kd with Aβ(1-40) amounted to 1.67 µM; with pE3-Aβ(3-18), 0.402 µM; with pE3-isoD7-Aβ(3-18), 0.0017 µM; in the test with Mouse isoD7-Aβ(1-18) it was 0.153 µM; with isoD7-Aβ(1-40) it was 0.0035 µM; in the test with isod7-Aβ(1-17), 2.69 µM. Besides, in the test with Aβ(1-18) [1], the Kd came out at 2.7 µM. Further, the binding result with Aβ(1-30) is listed as “no binding (tested: 140 pg/ml)”.

B2: monoclonal antibody K119 (antibody, mouse IgG2a, kappa, V domains shown)
VH: EVKLVESGGGLVQPGGSLRLSCATSGFTFTDYYMSWVRQPPGKALEWLGFIRNKANGYTTEYSASVKGRFTISRDNSQSILYLQMNTLRTEDSATYYCTRDIPTIMDYWGQGTSVTVSS
VL: DIVMSQSPSSLAVSAGEKATMSCKSSQSLFNSRTRKNYVAWLQQKPGQSPKLLISWASTRESGVPDRFTGSGSGTDFALTITNVQAEDLAVYYCKQSYNLRAFGGGTKLEITR
notes: Mouse monoclonal antibody from a hybridoma
The molecule B2 registered a Kd with Aβ(1-18) [2] of 931 µM.
